Experimental data taken from US5688918, “p53as protein and antibody therefor” (Health Research, Inc.).

Legend:
[1] = molecular target: T1, p53 (UniProt P02340 P02340:1-390); assay: cell_activity
[2] = molecular target: p53as (Mus musculus) (UniProt P02340); assay: cell_activity
[3] = molecular target: T1, p53; assay: cell_activity; CAT reporter, mouse (10)1 cells; details: tags: none; pCMVp53r; chain copies: 4
Procedure: Spontaneously arising immortalized murine BALB/c embryo fibroblast (10) 1 is a p53 negative cell line which was transfected with 2 μg pSV-β-gal plasmid (Promegal), 3 μg 50-2 plasmid (Dr. Levine) which contains 2 copies of a 50 bp sequence corresponding to p53 binding site in muscle creatinine kinase promoter-enhancer upstream of a basic CAT reporter plasmid, and 5 μg pCMVp53as, pCMVp53r or pCMV vector control. Transfection was done using the calcium phosphate method. The cells were harvested 48 hors post transfection and lysed by three freeze-thaw cycles. The supernatant was assayed for CAT activity using diffusion.

[4] = CAT reporter, human Saos-2 cells
[5] = luciferase reporter, mouse (10)1 cells

T1 sequence (P02340 whole entry, one chain of several): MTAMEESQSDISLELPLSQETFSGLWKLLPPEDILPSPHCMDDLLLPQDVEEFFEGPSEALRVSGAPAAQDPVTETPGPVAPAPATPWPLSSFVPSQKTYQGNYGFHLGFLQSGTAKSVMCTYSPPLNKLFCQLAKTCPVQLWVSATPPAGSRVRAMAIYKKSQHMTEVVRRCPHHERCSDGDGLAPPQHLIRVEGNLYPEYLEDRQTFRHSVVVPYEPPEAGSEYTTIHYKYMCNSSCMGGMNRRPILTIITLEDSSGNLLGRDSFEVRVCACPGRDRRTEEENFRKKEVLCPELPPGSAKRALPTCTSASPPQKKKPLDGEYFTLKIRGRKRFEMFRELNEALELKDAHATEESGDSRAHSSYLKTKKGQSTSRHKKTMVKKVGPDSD
Chain of p53as (Mus musculus) (P02340 1-364): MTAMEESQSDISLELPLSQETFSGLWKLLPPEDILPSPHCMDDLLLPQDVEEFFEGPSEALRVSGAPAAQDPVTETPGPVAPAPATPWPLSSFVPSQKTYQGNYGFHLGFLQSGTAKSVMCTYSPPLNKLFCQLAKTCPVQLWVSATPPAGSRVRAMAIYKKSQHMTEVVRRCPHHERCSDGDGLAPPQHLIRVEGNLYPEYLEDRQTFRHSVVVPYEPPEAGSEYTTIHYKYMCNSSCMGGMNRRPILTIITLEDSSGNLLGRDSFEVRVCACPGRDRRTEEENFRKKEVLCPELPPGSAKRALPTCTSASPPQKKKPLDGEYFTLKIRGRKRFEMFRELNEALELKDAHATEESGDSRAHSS

Q: For PG13 (13 repeats of p53 binding site), which activity (fold activation) [1, 4] is on record?
A: 14

Q: What about the activity (fold activation) [2, 4] of the same molecule?
A: 9

Q: With WAF-1 promoter (WWP-1 luciferase) as the molecule, how does the activity (fold activation) [1, 5] read?
A: 15

Q: And the activity (fold activation) [2, 5]?
A: 14

B1: muscle creatine kinase promoter-enhancer p53 site (50-2 reporter, 2 copies of 50 bp) (dsDNA)
DNA 1: TGGCAAGCCTATGACATGGCCGGGGCCTGCCTCTCTCTGCCTCTGACCCT
DNA 2: AGGGTCAGAGGCAGAGAGAGGCAGGCCCCGGCCATGTCATAGGCTTGCCA
Q: Which activity [3] does the source give for B1 here?
A: 27 fold activation
